Source: patent publication US20210060068A1 (published 2021)
Each block holds one binder with its values, some of them ahead of it.

Key:
Experiment in all cases: SPR
wild-type mouse IL-2Rβ = target: T1, wild-type mouse IL-2Rβ (UniProt P16297 27-240)
T1 chain: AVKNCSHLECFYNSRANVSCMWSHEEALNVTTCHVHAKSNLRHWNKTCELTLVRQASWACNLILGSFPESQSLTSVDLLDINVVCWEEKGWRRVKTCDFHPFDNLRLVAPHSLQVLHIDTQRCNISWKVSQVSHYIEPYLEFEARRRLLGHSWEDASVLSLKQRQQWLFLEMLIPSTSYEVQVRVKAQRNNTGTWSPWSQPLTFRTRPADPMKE

180 = target: 180
163 = target: 163
170 = target: 170
172 = target: 172
145 = target: 145
176 = target: 176
148 = target: 148
182 = target: 182
157 = target: 157
150 = target: 150
175 = target: 175
162 = target: 162
147 = target: 147
177 = target: 177
165 = target: 165
146 = target: 146
151 = target: 151
160 = target: 160
161 = target: 161
149 = target: 149
181 = target: 181

- Kd (wild-type mouse IL-2Rβ): 4 µM
B1: wild-type mouse IL-2 (ligand)
chain: APTSSSTSSSTAEAQQQQQQQQQQQQHLEQLLMDLQELLSRMENYRNLKLPRMLTFKFYLPKQATELKDLQCLEDELGPLRHVLDLTQSKSFQLEDAENFISNIRVTVVKLKGSDNTFECQFDDESATVVDFLRRWIAFCQSIISTSPQ

- Kd 180: 6 µM
- Kd 163: 1000 nM
- Kd 170: 2000 nM
- Kd 172: 2000 nM
- Kd 145: 4 µM
- Kd 176: 1000 nM
- Kd 148: 4 µM
- Kd 182: 3000 nM
- Kd 157: 4 µM
- Kd 150: 3000 nM
- Kd 175: 4 µM
- Kd 162: 3000 nM
- Kd 147: 8 µM
- Kd 177: 3000 nM
- Kd 165: 1000 nM
- Kd 146: 600 nM
- Kd 151: 2000 nM
- Kd 160: 1000 nM
- Kd 161: 3000 nM
- Kd 149: 4 µM
- Kd 181: 5 µM
B2: orthoIL-2Rβ (receptor)
chain: AVKNCSHLECFYNSRANVSCMWSHEEALNVTTCHVHAKSNLRHWNKTCELTLVRQASWACNLILGSFPESQSLTSVDLLDINVVCWEEKGWRRVKTCDFHPFDNLRLVAPHSLQVLHIDTQRCNISWKVSQVSDFIEPYLEFEARRRLLGHSWEDASVLSLKQRQQWLFLEMLIPSTSYEVQVRVKAQRNNTGTWSPWSQPLTFRTRPADPMKE
